Target: the molecule itself
Assay: crystal structure

B1: phosphorylated Sts-2PGM (phospho-His366) (domain or fragment, mouse, UniProt Q3V3E1 354-624, looked up)
chain: ATISRRGILVVRHGERVDQVFGKSWLQQCTTADGKYYRPDLNFPRSLPRRSNGIKDFENDPPLSSCGIFQARLAGEALLDSGVRVTAVFASPALRCVQTAKHILEELKLEKKLKIRVEPGIFEWMKWEASKATLTFLTLEELKEANFNVDLDYRPALPRCSLMPAESYDQYVERCAVSMGQIINTCPQDMGITLIVSHSSALDSCTRPLLGLPPRECGDFAQLVRKIPSLGMCFCEENREDGKWDLVNPPVKTLTHGANSVFNWRNWISSN
modifications: phosphohistidine at 366 (on NE2; occupancy between 0.50 and 0.70, in three of the four monomers)
B1: binds.

Reference: PMC2819845 (Biochemistry, 2009)
